Experimental data reported in the supplement of paper PMC10724198.
± gives the standard deviation of the averaged measurements.

Test system: Saccharomyces cerevisiae
Test: protein stability index of tFT-peptide fusion (C-terminal peptide) (PSI (0-1 scale)); higher = more stable (slower turnover)
Details: temperature: 30 C
Description: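 MPS profiling in S. cerevisiae of the yeast C-terminome library: the last 12 aa of each annotated ORF are fused to the C-terminus of a sfGFP-mCherry timer, after a GGGS linker. Cells are FACS-sorted into 8 mCherry/sfGFP bins and deep-sequenced. PSI runs from 0 (unstable) to 1 (stable); wild type and das1Δ backgrounds, two technical replicates each.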

[1] = genetic background: das1 deletion

Sequence | protein stability index [1] | protein stability index (genetic background: wild type)
LLGAITALFGLI [PLB2 C-terminal 12 aa] | 0.686 ± 0.034 | 0.658 ± 0.029
LLKKLKVVFGIE [FUN12 C-terminal 12 aa] | 0.703 ± 0.014 | 0.68523 ± 0.0002
LLLTILLFYPPY [YBL109W C-terminal 12 aa] | 0.296 ± 0.011 | 0.318 ± 0.022
LLTAMSAQISFD [AAD16 C-terminal 12 aa] | 0.735 ± 0.00072 | 0.72 ± 0.012
LLYHMDLLLKVK [VID28 C-terminal 12 aa] | 0.299 ± 0.026 | 0.365 ± 0.015
LMQLLLGSLGLS [YKL145W-A C-terminal 12 aa] | 0.706 ± 0.0093 | 0.716 ± 0.031
LNDMVLELKENY [NNF1 C-terminal 12 aa] | 0.698 ± 0.015 | 0.704 ± 0.0096
LNEPKDSAENKI [SRC1 C-terminal 12 aa] | 0.6958 ± 0.0062 | 0.659 ± 0.026
LNWVFSFYSCSE [YIL163C C-terminal 12 aa] | 0.6796 ± 0.0049 | 0.688 ± 0.019
LQYKKVGKWRED [URB2 C-terminal 12 aa] | 0.724 ± 0.017 | 0.736 ± 0.0096
LRKAAANNCIQF [SUA5 C-terminal 12 aa] | 0.7215 ± 0.0026 | 0.7134 ± 0.0016
LRKRLSCYMLIL [YDR114C C-terminal 12 aa] | 0.576 ± 0.013 | 0.4114 ± 0.0012
LRNQSPFTSSNE [YKL107W C-terminal 12 aa] | 0.695 ± 0.02 | 0.682 ± 0.029
LRRGEPDNKVNR [SPG4 C-terminal 12 aa] | 0.71 ± 0.019 | 0.708 ± 0.012
LRVYENFQKFIK [YMR262W C-terminal 12 aa] | 0.72 ± 0.054 | 0.705 ± 0.04
LSDASYDTYELV [SPG5 C-terminal 12 aa] | 0.703 ± 0.011 | 0.743 ± 0.01
LSEKIYDAFGKL [MUS81 C-terminal 12 aa] | 0.723 ± 0.015 | 0.7271 ± 0.0047

Sequence | protein stability index [1] | protein stability index (genetic background: wild type)
LSIFGFDMFNRK [YMR1 C-terminal 12 aa] | 0.706 ± 0.046 | 0.703 ± 0.028
LSNMLNQFILNL [YLR202C C-terminal 12 aa] | 0.754 ± 0.058 | 0.74991 ± 6.5e-05
LSQIVDIWNKDI [MNT2 C-terminal 12 aa] | 0.741 ± 0.03 | 0.79 ± 0.044
LSTFFLFHNPCN [YGL239C C-terminal 12 aa] | 0.762 ± 0.022 | 0.706 ± 0.079
LSTLGVGAAIIS [AVT1 C-terminal 12 aa] | 0.695 ± 0.024 | 0.675 ± 0.035
LSVHPLKPCDPN [INP52 C-terminal 12 aa] | 0.684 ± 0.0054 | 0.661 ± 0.042
LTARKVNALRHR [KNH1 C-terminal 12 aa] | 0.694 ± 0.028 | 0.694 ± 0.048
LTILRISELSMN [MRPL49 C-terminal 12 aa] | 0.7053 ± 0.0034 | 0.354 ± 0.0057
LTLNWGVEIVKK [RDI1 C-terminal 12 aa] | 0.73 ± 0.03 | 0.725 ± 0.017
LTMLPPMAPLLS [YMR158W-B C-terminal 12 aa] | 0.684 ± 0.021 | 0.653 ± 0.018
LTPADLQFLFNN [RAD16 C-terminal 12 aa] | 0.72 ± 0.013 | 0.708 ± 0.017
LTQVEKPRGIFD [DDC1 C-terminal 12 aa] | 0.71 ± 0.023 | 0.674 ± 0.013
LVEGQTFDADVE [EGD1 C-terminal 12 aa] | 0.69111 ± 4.7e-05 | 0.671 ± 0.033
LVLKQRQEQEKQ [GDI1 C-terminal 12 aa] | 0.688 ± 0.025 | 0.717 ± 0.06
LVRFIEAEKFVG [SNX3 C-terminal 12 aa] | 0.7119 ± 0.003 | 0.6912 ± 0.0047
LYDNIRSGNFGI [MSB1 C-terminal 12 aa] | 0.771 ± 0.008 | 0.6503 ± 0.00092
MDNKQQLSSGRT [SNA3 C-terminal 12 aa] | 0.709 ± 0.016 | 0.686 ± 0.021
